Laboratory results taken from the RNAGym collection of RNA variant scans (doi:10.7554/elife.90254).

B1: OR4K15 (parent)
chain: GUUAACGGUCAUAGGCCAUGGAAACUAGGAGCACCAUUUCGCUGCCAGUGAAGAAAUGAACAAAGAAAAUCUGGGCCAGGCAGGCAUCAAAAGAAAUAGUCUUGCGCUCAACCAGAAAGUCUGUAAUCAUUUUAAGGGUA

Variants of: B1
Assay: self-cleavage, relative activity (ratio to wild type); higher = more cleavage; in vitro, sequencing; the parent is a self-cleaving ribozyme

Variant | self-cleavage
A52U U122C | 0.74
A52C A95G | 1.94
A51G G104A | 0.03
A52G A55G | 0.97
G50A A95U | 1.28
A51G U87A | 1.3
A51G U87C | 0.86
A51C A117G | 0.81
U49G A67C | 1.97
A52G A94U | 2.01
A52G A94G | 1.99
A51U A55G | 0.55
A51G A94G | 1.2
G50U A63G | 0.92
A51G U122C | 0.6
A52G A96U | 1.86
A52G A56C | 0.99
U49C C85G | 1.62
A51C A110U | 0.82
A51G U131A | 0.59
A51G U72A | 0.13
G50A C71U | 0.42
A52G A91U | 2.17
U49C G73A | 0.28

Variant | self-cleavage
A51G U70A | 1.23
A52U A117G | 1.11
A51G C121U | 2.74
A51G A135G | 1.7
G53A U102A | 0.68
U49G A51G | 0.95
A51G A140G | 1.62
A51G A140U | 1.35
A52C G84U | 0.51
A51G G79U | 0.1
A51G G79A | 0.23
A51U A68C | 1.91
A51U A68G | 1.24
A51C A60G | 2.31
A52G A135U | 1.37
A52G A135G | 1.44
A51U A78G | 0.26
A51U A78C | 0.2
A51G A134C | 1.4
A51G A134G | 1.55
A52G A69G | 0.65
A51U U108C | 0.02
A51U G93A | 1.71
A51G A62U | 1.49

Variant | self-cleavage
A51U G74A | 0.22
A52G A110C | 0.26
A52G A110U | 1.17
G53A U100C | 2.52
U49G A98G | 0.14
G53A A111G | 0.02
A51U A59U | 0.5
A52U A66G | 1.8
A52U A66U | 1.48
A52U U131C | 0.4
G50C A56G | 1.42
A51G U124A | 1.04
U49C U127C | 0.94
U49C U127A | 2.43
U49C U127G | 1.49
A51U A111U | 0.06
A51U A111G | 0.04
A51G A89C | 1.6
A52C A114G | 0.25
G53A | 1.21
G53C | 1.74
G53U | 1.7
A52G A78U | 0.47
U49G G75A | 0.09

Variant | self-cleavage
A52G U133C | 1.33
A52C | 0.57
A52U | 0.8
A52G | 1.11
A51G A125G | 0.97
A51G A125U | 1.72
G50U U100G | 1.34
A51C A91G | 1.33
A52U U72C | 0.17
A52U U72G | 0.39
A51C A68G | 1.2
A52G A89C | 2.11
A51G A69U | 1.41
A51G A69G | 1.24
A52U A78G | 0.24
A52G U103C | 0.45
A51G U100G | 1.63
G53U A60U | 1.71
U49G A56G | 1.64
A52G A117U | 0.97
A52G G83A | 1.07
U49G U72A | 0.32
A51U A90G | 0.91
A52C A78C | 0.21

Variant | self-cleavage
A51U A64U | 1.15
A52C A116G | 0.64
A52G U127C | 0.95
A52G C76G | 0.03
A52G C76U | 0.13
U49C U100C | 2
U49C U100A | 0.63
U49C U100G | 1.72
A52U U70C | 1.72
A52G A129U | 0.71
A52G A129G | 1.3
A52U U87A | 1.78
G50U U120C | 1.29
A52G C88U | 1.39
G50A U100G | 0.96
G50A U100C | 2.01
A51U U103C | 1.35
A52C A82G | 0.55
A51G U120C | 0.85
A51G A118U | 0.39
A51G C71A | 0.89
A52U U120C | 1.21
A51G A90G | 1.29
A52G A114U | 0.14

Variant | self-cleavage
A52G A114G | 0.28
U49G A95G | 1.28
A51G A92U | 2.09
A51G A92G | 1.45
A52U A94U | 1.94
A52C A63G | 2.56
A51U A118G | 0.6
A52G A86G | 1.41
A52G A82U | 0.2
A52G A82G | 0.19
G53A A86G | 1.83
G50U U132C | 1.23
A52U A55U | 1.62
A52U A55G | 1.07
A51G A60U | 1.68
A51G U127G | 1.9
A51C A82G | 0.67
U49G A59G | 0.95
U49G A59U | 1.34
A51U A98U | 2.9
U49C G50U | 2.22
A52U C113U | 0.06
U49G U131C | 1.56
G53U C112U | 0.01

Variant | self-cleavage
A51U U97C | 1.37
A51U U124C | 0.77
U49C G138C | 1.54
A51U A94C | 0.55
A51U A94U | 1.26
U49C G80A | 0.21
U49C G80U | 0.11
A52G U131C | 1.51
A51G U132A | 1.68
A51G U132C | 0.81
U49C U132G | 0.91
U49C U132C | 1.45
A51G A55G | 0.97
A51G A55U | 1.2
G50A A69G | 1.85
A51U G84A | 0.65
A52U G99A | 0.22
A51G A59G | 0.89
G50C C85U | 1.4
A52G A60G | 1.32
A52G A60U | 0.9
A52G U122A | 0.76
A52G U122G | 1.94
